This series concerns the target T1, XPF S767F;ERCC1 wild type (hsERCC1) (Xenopus laevis;Homo sapiens?, UniProt A0A8J0PXV9;P07992 1-897;1-297, S767F|).
T1 sequence 1: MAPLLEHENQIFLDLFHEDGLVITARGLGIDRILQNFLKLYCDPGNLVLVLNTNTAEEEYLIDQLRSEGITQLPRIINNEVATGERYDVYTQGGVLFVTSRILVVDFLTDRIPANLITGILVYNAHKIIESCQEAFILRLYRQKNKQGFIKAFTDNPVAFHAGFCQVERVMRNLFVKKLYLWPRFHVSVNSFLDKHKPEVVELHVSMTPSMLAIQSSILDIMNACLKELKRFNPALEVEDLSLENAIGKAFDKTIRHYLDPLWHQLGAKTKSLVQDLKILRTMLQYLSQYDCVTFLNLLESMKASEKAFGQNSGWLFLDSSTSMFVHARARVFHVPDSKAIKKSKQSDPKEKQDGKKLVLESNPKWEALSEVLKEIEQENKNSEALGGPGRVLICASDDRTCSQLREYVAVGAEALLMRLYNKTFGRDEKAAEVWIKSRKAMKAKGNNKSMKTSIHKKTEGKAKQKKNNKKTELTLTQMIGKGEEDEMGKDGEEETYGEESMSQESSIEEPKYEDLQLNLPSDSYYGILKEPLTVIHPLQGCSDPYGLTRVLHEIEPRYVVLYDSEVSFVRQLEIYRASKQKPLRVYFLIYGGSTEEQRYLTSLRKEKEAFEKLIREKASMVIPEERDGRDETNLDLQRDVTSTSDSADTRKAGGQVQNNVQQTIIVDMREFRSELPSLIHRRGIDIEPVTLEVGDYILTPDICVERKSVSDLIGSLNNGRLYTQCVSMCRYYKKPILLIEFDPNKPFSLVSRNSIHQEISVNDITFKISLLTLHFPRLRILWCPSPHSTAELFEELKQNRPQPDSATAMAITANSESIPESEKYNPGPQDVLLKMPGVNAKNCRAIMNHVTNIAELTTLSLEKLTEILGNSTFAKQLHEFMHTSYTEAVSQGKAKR
T1 sequence 2: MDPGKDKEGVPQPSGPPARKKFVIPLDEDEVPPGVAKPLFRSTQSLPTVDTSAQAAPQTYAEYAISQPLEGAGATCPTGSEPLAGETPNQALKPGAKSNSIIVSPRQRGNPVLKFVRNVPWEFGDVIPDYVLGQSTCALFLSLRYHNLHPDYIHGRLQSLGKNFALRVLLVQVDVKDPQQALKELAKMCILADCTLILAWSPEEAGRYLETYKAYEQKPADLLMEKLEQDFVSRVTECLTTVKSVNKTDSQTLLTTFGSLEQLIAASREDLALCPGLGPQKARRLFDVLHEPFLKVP
As to the kind of experiment: fluorescence anisotropy; 2 mM Ca2+; comparable to wild type; 25 mM Hepes pH 8.0, 15% glycerol, 0.1 mg/ml BSA, 2 mM CaCl2, 10 nM DNA, 1 h at room temperature. Particulars: protein: recombinant;recombinant; tags: FLAG;His; copies: 1;1; label: 5'-FAM on F1; three strands 1:1:1.

B1: 3' flap DNA substrate (F1+F2+F3) (dsDNA)
DNA 1: CGCGATGCGGATCCAA
DNA 2: CCTAGACTTAAGAGGCCAGACTTGGATCCGCATCGC
DNA 3: GGCCTCTTAAGTCTAGG
Regarding B1, the binding result is listed as “binds”.

Source of the values: article PMC5510004, “Recruitment and positioning determine the specific role of the XPF‐ERCC1 endonuclease in interstrand crosslink repair”.
